The source of these data is patent US7700101B2, “Reagents and method for modulating Dkk-mediated interactions” (Wyeth, priority 2001, dated 2010).

Experiment [1] has as its system HBM-mediated Wnt signaling. Briefly: Xenopus embryo assay, hDkk-1 modulation of HBM+Wnt5a signaling. The experiment is classed as in vivo. The note with it: hDkk-1 250 pg, FIG. 11. As for the experimental part:
mRNA for microinjection into Xenopus embryos is generated by in vitro transcription using the CDNA constructs in the pCS2^+ vector described above as template. RNA is synthesized using the Ambion mMessage mMachine high yield capped RNA transcription kit (Cat. #1340) following the manufacturer's specifications for the Sp6 polymerase reactions. RNA products were brought up to a final volume of 50 μl in sterile, glass-distilled water and purified over Quick Spin-Columns for Radiolabelled RNA Purification G50-Sephadex (Roche, Cat. #1274015) following the manufacturer's specifications. The resulting eluate was finally extracted with phenol:chloroform:isoamyl alcohol and isopropanol precipitated using standard protocols (Sambrook et al., 1989). Final RNA volumes were approximately 50 μl. RNA concentration was determined by absorbance values at 260 nm and 280 nm. RNA integrity was visualized by ethidium bromide staining of denaturing (formaldehyde) agarose gel electrophoresis (Sambrook et al., 1989). Various amounts of RNA (2 pg to 1 ng) are injected into the ventral blastomere of the 4- or 8-cell Xenopus embryo. These protocols are described in Moon et al., Technique-J. of Methods in Cell and Mol. Biol. 1: 76-89 (1989), and Peng, Meth. Cell. Biol. 36: 657-62 (1991). […]

The next experiment deals with LRP5 LBD. The experiment in a line: Yeast-2 hybrid interaction trap LRP5 LBD-LexA / Gal4AD-Dkk. The experiment is classed as binding. The conditions noted are these: LRP5LBD-LexA bait and Gal4AD-Dkk prey. From the text:
Small molecule inhibitors (or partial inhibitors) of the Dkk-LRP interaction may be an excellent osteogenic therapeutic. One way to investigate this important protein-protein interaction is using Y2H techniques substantially as described above and as is well known in the art. […] This interaction is quantitated using a reporter element known in the art, e.g., LacZ or luciferase, which is only activated when bait and prey interact. The Y2H assay is used to screen for compounds which modulate the LRP-Dkk interaction. Such a modulation would be visualized by a reduction in reporter element activation signifying a weaker or disrupted interaction, or by an enhancement of the reporter element activation signifying a stronger interaction. Thus, the Y2H assay can be used as a high-throughput screening technique to identify compounds which disrupt or enhance Dkk interaction with LRP5/LRP6/HBM, which may serve as potential therapeutics.
For example, the Interaction Trap methodology can be used as follows. […] With the LRP5LBD-LexA bait and the Gal4AD-Dkk prey, over a 20-fold activation of a lacZ reporter (under the control of a single LexA operator) was detected over the background. […] As a result, small molecules may be identified that modulate this interaction between LRP and Dkk.

For the next experiment, the target named is T1, HBM (Homo sapiens, UniProt O75197, G171V).
T1 construct: Full length Zmax/LRP5 and HBM ORF cDNA; expressed in transfected cells; host or cells: HOB-03-CE6 osteoblastic cells; U2OS osteosarcoma cells; HEK293
The experiment in a line: TCF-luciferase assay in HOB-03-CE6 cells, HBM. The note with it: Wnt1, FIG. 14. Format: cell-based. On the procedure:
(§1) HOB-03-CE6 osteoblastic cells developed by Wyeth Ayerst (Philadelphia, Pa.) were seeded into 24-well plates at 150,000 cells per well in 1 ml of the growth media (D-MEM/F12 phenol red-free) containing 10% (v/v) heat-inactivated FBS, 1×penicillin streptomycin, and 1X Glutamax-1, and incubated overnight at 34° C. The following day, the cells were transfected using Lipofectamine 2000® (as described by the manufacturer, Invitrogen) in OptiMEM (Invitrogen) with 0.35 μg/well of LRP5, HBM, or control plasmid DNA (empty vector pcDNA3.1) and either Wnt1 or Wnt3 a plasmid DNA. […] All wells were transfected with 0.025 μg/well of CMV beta-galactosidase plasmid DNA and 0.35 μg/well 16X TCF(ASyluciferase reporter DNA (developed by Ramesh Bhat, Wyeth-Ayerst (Philadelphia, Pa.)). After 4 hours of incubation, the cells were rinsed and 1 ml of fresh growth media was added to each well. The cells were cultured overnight at 34° C., followed by a wash and a change of media. Cells were cultured for an additional 18-24 hours at 37° C. Cells were then lysed with 50 μl/well of 1X lysis buffer. The extracts were assayed for beta-galactosidase activity (Galacto Reaction Buffer Diluent & Light Emission Accelerator, Tropix) using 5 μl extract+50 μl beta-galactosidase diluent and luciferase activity (Luciferase Assay Reagent, Promega) using 20 μl extract.

A further experiment has as its target LRP6 (Homo sapiens, UniProt O75581). The conditions noted are these: cited from earlier work.
The target of the next experiment is T2, LRP5 (Homo sapiens, UniProt O75197).
T2 construct: Site-directed mutants of LRP5 were generated in the full-length human LRP5 cDNA; expressed in transfected cells; host or cells: HOB-03-CE6 osteoblastic cells; U2OS osteosarcoma cells; HEK293
The experiment in a line: TCF-luciferase assay in HOB-03-CE6 cells, LRP5. The experiment is classed as cell-based. On the procedure: as §1, with “DNA. Similar experiments were performed with LRP6 plasmid DNA (0.35 μg/well) or a control pEDdpc4 empty vector.” for “DNA.”

Usually Kd stands for a measure of binding affinity in units of concentration.

“Also recorded” adds a separate entry of the source. Read-outs that look alike come from different tables or passages of the source. Bounds are passed on as bounds.

T2 sequence (O75197 32-1615): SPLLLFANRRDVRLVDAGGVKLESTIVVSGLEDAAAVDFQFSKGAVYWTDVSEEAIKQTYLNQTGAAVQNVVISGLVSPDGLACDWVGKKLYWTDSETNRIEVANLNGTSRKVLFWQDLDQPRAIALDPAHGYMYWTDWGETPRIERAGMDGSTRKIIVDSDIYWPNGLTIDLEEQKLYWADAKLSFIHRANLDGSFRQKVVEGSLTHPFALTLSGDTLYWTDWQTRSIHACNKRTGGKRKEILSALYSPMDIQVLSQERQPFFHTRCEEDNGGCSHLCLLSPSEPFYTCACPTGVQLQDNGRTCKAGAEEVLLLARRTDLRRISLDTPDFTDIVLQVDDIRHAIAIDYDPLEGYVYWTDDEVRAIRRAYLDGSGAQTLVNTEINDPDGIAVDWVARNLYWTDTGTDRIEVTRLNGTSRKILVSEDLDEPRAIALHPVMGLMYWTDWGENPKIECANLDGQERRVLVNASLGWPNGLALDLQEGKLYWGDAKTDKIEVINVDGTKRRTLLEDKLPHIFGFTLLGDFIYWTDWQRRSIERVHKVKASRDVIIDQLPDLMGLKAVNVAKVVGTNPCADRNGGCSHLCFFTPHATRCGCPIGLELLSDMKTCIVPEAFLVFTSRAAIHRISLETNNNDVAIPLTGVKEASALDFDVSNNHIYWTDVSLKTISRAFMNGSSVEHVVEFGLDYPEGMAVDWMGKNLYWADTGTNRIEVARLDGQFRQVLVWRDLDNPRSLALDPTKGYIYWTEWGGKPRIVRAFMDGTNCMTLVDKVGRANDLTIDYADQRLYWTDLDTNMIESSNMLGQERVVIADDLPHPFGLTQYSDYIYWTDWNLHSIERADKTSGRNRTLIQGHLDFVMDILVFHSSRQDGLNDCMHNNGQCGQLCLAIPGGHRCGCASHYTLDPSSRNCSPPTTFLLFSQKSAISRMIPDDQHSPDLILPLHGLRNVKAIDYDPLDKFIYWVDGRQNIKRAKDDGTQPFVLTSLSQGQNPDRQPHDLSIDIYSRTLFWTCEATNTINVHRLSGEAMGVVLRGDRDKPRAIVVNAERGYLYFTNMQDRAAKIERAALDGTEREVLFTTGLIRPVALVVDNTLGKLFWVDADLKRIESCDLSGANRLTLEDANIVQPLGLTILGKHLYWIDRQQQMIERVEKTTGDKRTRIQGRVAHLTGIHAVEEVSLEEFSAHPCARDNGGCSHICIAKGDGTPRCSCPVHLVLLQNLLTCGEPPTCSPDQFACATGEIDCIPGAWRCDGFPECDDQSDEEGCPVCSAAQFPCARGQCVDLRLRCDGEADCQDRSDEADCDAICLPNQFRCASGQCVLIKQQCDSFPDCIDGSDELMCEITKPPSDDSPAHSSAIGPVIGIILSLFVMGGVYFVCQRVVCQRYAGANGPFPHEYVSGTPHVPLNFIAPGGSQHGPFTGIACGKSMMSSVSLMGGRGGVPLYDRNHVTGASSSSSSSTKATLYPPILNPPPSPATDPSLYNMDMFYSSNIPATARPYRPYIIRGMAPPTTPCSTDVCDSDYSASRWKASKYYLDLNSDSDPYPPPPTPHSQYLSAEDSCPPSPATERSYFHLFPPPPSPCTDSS
Chain of LRP6 (O75581 20-1613, species assumed): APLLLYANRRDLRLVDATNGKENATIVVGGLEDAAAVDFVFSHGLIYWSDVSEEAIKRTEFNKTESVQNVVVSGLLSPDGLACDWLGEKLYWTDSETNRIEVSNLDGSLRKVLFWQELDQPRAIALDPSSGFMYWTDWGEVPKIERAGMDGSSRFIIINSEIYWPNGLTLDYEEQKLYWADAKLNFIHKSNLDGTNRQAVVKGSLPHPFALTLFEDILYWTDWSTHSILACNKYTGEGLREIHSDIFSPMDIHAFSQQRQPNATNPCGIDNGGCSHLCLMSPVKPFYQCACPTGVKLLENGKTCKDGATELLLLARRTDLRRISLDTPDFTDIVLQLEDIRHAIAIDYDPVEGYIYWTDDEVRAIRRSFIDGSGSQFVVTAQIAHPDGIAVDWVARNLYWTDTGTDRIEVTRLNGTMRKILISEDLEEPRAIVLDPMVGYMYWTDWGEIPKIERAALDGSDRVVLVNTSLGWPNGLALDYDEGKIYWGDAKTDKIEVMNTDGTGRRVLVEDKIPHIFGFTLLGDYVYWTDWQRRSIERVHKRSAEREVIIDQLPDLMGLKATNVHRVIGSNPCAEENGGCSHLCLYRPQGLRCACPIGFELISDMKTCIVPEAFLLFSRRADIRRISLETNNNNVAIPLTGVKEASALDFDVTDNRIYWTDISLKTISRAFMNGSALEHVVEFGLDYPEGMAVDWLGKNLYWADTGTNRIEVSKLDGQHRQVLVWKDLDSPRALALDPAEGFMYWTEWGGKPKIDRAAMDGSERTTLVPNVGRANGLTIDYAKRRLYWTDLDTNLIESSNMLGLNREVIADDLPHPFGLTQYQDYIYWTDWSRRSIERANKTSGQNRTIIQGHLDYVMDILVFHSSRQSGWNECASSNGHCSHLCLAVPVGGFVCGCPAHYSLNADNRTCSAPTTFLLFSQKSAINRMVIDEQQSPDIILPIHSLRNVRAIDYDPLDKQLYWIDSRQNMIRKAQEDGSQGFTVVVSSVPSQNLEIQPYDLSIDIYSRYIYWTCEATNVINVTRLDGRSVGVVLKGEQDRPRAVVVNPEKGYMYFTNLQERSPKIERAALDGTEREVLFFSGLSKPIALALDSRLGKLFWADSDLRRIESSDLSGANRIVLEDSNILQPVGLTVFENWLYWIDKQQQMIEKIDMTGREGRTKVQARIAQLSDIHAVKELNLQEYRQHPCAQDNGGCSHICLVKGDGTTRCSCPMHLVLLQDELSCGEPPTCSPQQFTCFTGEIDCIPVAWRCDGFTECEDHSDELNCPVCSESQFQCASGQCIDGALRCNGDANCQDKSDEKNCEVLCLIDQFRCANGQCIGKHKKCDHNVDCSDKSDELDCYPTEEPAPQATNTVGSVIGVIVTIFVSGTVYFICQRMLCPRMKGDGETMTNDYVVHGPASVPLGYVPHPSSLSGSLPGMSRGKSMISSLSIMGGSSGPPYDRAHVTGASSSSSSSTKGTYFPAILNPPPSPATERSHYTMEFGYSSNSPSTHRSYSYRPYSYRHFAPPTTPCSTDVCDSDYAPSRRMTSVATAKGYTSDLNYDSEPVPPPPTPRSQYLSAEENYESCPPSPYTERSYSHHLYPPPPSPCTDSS
T1 sequence (O75197 32-1615 G171V): as the sequence (O75197 32-1615) above, with G140V counted along it
Chain of LRP5 LBD (as listed by the source): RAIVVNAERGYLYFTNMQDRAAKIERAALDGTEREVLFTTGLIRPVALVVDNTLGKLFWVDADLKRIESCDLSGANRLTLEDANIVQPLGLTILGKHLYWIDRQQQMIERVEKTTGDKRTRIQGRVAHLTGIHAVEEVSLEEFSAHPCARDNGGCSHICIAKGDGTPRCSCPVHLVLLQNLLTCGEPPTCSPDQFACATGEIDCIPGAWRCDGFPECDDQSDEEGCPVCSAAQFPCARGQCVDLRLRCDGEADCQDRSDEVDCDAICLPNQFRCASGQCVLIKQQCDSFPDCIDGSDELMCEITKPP

In the case of “Dkk-1: Dickkopf-1 protein, antagonist of the Wnt pathway; expressed from human cDNA (RNA or plasmid)”, in experiment [1], the “repression of HBM-mediated Wnt signaling” value was “unable to repress”. Further, in the experiment on LRP5 LBD, the “activation of lacZ reporter over the background” value is reported as above 20 fold. Besides, in the experiment with HBM, the “HBM/Wnt1 mediated TCF-luciferase activity” value is on record as “no effect; also recorded: had no effect on LRP5 or HBM mediated TCF-luciferase activity”. Further, the Kd in the experiment with LRP6 (Bafico et al., 125I-labeled Dkk-1) is 0.39 nM; with LRP6 (Mao et al., classical biochemical ligand-receptor studies) it was 0.34 nM. For the same substance, in the experiment with LRP5 (Wnt1, FIG. 14), the “LRP5/Wnt1 mediated TCF-luciferase activity” value is “significantly antagonized TCF-luciferase activity; also recorded: had no effect on LRP5 or HBM mediated TCF-luciferase activity”. Besides, in the experiment with LRP5 (Wnt3a, FIG. 15), the “LRP5/Wnt3a mediated TCF-luciferase activity” value is reported as “able to antagonize LRP5/Wnt3a”.
